Data published in the nanobody polyreactivity screen of Harvey et al. (2022).

Experiment: yeast display, Sf9 membrane polyspecificity reagent, FACS + sequencing; frameworks hold sequencing errors
Procedure, shortened: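 Nanobodies came from a synthetic yeast display library in Saccharomyces cerevisiae BJ5465, induced with galactose for 36–48 hours and stained for 1 hour at 4 °C with 10% biotinylated, detergent-solubilized Sf9 membrane reagent. Cells were enriched on streptavidin microbeads and then FACS-sorted, with low and high (top ~1%) gates set on anti-HA fluorescence for expression and streptavidin fluorescence for reagent binding. Each polyreactivity label reflects the gate a clone came from. Genes were amplified by colony PCR, sequenced by MiSeq 2 × 250 and filtered by CDR length.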

Sequence	polyreactivity (PSR sort gate)
QVQLVESGGGLVQAGGSLRLSCAASGRIFSYYTMGWYRQAPGKERELVAAITSGDSTNYADSVKGRFTISRDNAKNTVYLQMNSLKPEDTAVYYCNARYSWWRSRVGSSHGPDGYWGQGTQVTVSS	high polyreactivity
QVQLVESGGGLVQAGGSLRLSCAASGRIFTANAMGWYRQAPGKERELVAAITSGTRTNYADSVKGRFTISRDNAKNTVYLQMNSLKPEDTAVFYCAKETATSKYDYWGQGTQVTVSS	low polyreactivity
QVQLVESGGGLVQAGGSLRLSCAASGRIFTFYAMGWYRQAPGKERELVAAITSGGSTYYADSVKGRFTISRDNAKKTVYLQMNSLKPEDTAVYYCNTYPGSRHGWYDYWGQVTQVTVSS	high polyreactivity
QVQLVESGGGLVQAGGSLRLSCAASGRIFTGNAMGWYRQAPGKERELVAAISSRGGRTYYADSVKGRFTISRDNAKNTVYLQMNSLKPEDTAVYYCNAVAVAASRAYSWYDYWGQGTQVTVSS	high polyreactivity
QVQLVESGGGLVQAGGSLRLSCAASGRIFTGYALGWYRQAPGKERELVAAISRGGSTNYADSVKGRFTISRDNAKNTVYLQMNSLKPEDTAVYYCAAGVHWDRGDYWGQGTQVTVSS	low polyreactivity
QVQLVESGGGLVQAGGSLRLSCAASGRIFTGYAMGWYRQAPGKERELVAAISRGGSTNYADSVKGRFTISRDNAKNSVYLQMNSLKPEDTAVYYCAAGVHWDRGDYWGQGTQVTVSS	low polyreactivity
QVQLVESGGGLVQAGGSLRLSCAASGRIFTGYAMGWYRQAPGKERELVATIRSRGGGTYYADSVKGRFTISRDNAKNTVYLQMNSLKPEDTAVYYCAADDYYYYFGTRYGYWGQGTQVTVSS	low polyreactivity
QVQLVESGGGLVQAGGSLRLSCAASGRIFTGYTMGWYRQAPGKERELVAGITRGGSTYYADSVKGRFTISRDNAKNTVYLQMNSLKPEDTAVYYCAADYPRFWYHSWYVPAYYYWGQGTQVTVSS	high polyreactivity
QVQLVESGGGLVQAGGSLRLSCAASGRIFTHNAIGWYRQAPGKERELVAGISYGGGSTYYADSVKGRFTISRDNAKITVYLQMNSLKPEDTAVYYCIAYIYDTYYWGQGTQVTVSS	low polyreactivity
QVQLVESGGGLVQAGGSLRLSCAASGRIFTHNAMGWYRQAPGKERELVAAISSIGGSTYYADSVKGRFTISRDNAKNTVYLQMNSLKPEDTAVYYCAVKRPLYGDSEYYYWGQGTQVTVSS	low polyreactivity
QVQLVESGGGLVQAGGSLRLSCAASGRIFTHNTMGWYRQAPGKERELVAAISSSGGSTYYADSVKGRFTISRDNAKNTVYLQMNSLKPDDTAVYYCNTLIKGRWIVVGYGYPGYDYWGQGTQVTVSS	high polyreactivity
QVQLVESGGGLVQAGGSLRLSCAASGRIFTIYAMGWSRQAPGKERELVAAITVSTGSTYYADSVKGRFTISRDNAKNTVYLQMKSLKPEDTAVYYCAKRGQSYTYRRYDYWGQGTQVTVSS	low polyreactivity
QVQLVESGGGLVQAGGSLRLSCAASGRIFTIYAMGWYRQAPGKERELVAGIRGGGSTNYADSVKGRFTISRDNAKNTVYLLMNSLKPEDTAVYYCAAEVRRYVIVPYYYWGQGTQVTVSS	high polyreactivity
QVQLVESGGGLVQAGGSLRLSCAASGRIFTIYAMGWYRQAPGKERELVATISSNVGSTYYADSVKGRFTISRDNAKNTVYLQMNSLKPEDTAVYYCAATRRAGFTTAKFDYWGQGTQVTVSS	high polyreactivity
QVQLVESGGGLVQAGGSLRLSCAASGRIFTKNTKGWYRQAPGKERELVAAIRSRAGSTYYADSVKGRFTISRDNAKNTVYLQMNSLKPEDTAVYYCAVPWFRSVDFDYWGQGTQVTVSS	low polyreactivity
QVQLVESGGGLVQAGGSLRLSCAASGRIFTKYAMGWYRQAPGKERELVAAISSRGGSTYYADSVKGRFTISRDNAKNTVYLQMNSLKPEDTAVYYCAAGYLPRYYYTPQFDGDYWGQGTQVTVSS	high polyreactivity
QVQLVESGGGLVQAGGSLRLSCAASGRIFTKYAMGWYRQAPGKERELVAGINWRDGRTYYADSVKGRFTLSRDNAKNTVYLQMISLKPVDTAVYYCAGVSIFGRRWMYYWGQGTQVTVSS	high polyreactivity
QVQLVESGGGLVQAGGSLRLSCAASGRIFTPYAMGWYRQAPGKERELVAGISSSGGSTYYADSVKGRFTISRDNAKNTVYLQMNSLKPEDTAVYFCNKRYRGTPRSYDYWGQGTQVTVSS	high polyreactivity
QVQLVESGGGLVQAGGSLRLSCAASGRIFTRNAMGLYRQAPGKERELVAAISWRGGSTYYADSVKGRFTISRDNAKNTVYLQMNSLKPEDTAVYYCAAQPWFGRAARYRTTYYYWGQGTQVTVSS	high polyreactivity
QVQLVESGGGLVQAGGSLRLSCAASGRIFTRNVMGWYRQAPGKERELVAAITTNGGSTYYADSVKGRFTISRDNAKNTVYLQMNSLKPEDTAVYYCAKRTVHYTWVYYWGQGTQVTVSS	high polyreactivity
QVQLVESGGGLVQAGGSLRLSCAASGRIFTRYAMGWYRPSPGKERELVAAISRNGGGTYYAESVKGRFTISRDNAKNTVYLQMNSLKPEDTAVYYCNAESTFVWGSYVRYDYWGQGTQVTVSS	low polyreactivity

Sequence	polyreactivity (PSR sort gate)
QVQLVESGGGLVQAGGSLRLSCAASGRIFTRYAMGWYRQAPGKERELVAAINSGGSTKYADSVKGRFTISRDNAKHTVYLQMNSLKPEDTAVYYCNACYWWYGYDYWGQGTQVTVSS	high polyreactivity
QVQLVESGGGLVQAGGSLRLSCAASGRIFTRYAMGWYRQAPGKERELVATISGSGSTNYADSVKGRFTISRDNAKNTVYLQMNSLKPEDTAVYYCNRRSRREYDYWGQGTQVTVSS	low polyreactivity
QVQLVESGGGLVQAGGSLRLSCAASGRIFTRYAMGWYRQAPGTERELVAVITRSGGSTYYADSVKGRFTISRDNAKNTVYLQMNSLKPEDTAVYYCAAKYYGEMYYWGQGTQVTVSS	low polyreactivity
QVQLVESGGGLVQAGGSLRLSCAASGRIFTRYAMGWYRQATGKERELVAAISSGGGNTYYADSVKGRFTISRDNAKNTVYLQMNSLKPEDTAVYYCAALRSWRKTGGAQRYWYDYWGQGTQVTVSS	high polyreactivity
QVQLVESGGGLVQAGGSLRLSCAASGRIFTSNAMGWYRQAPGKERELVAAISKSGGRTYYADSVKGRFTISRDNAKNTVYLQMNSLKPEDTAVYYCAKDNYWGQGTQVTVSS	high polyreactivity
QVQLVESGGGLVQAGGSLRLSCAASGRIFTSNAMGWYRQAPGKERELVAAISSSGTRTYYADSVKGRFTISRDNAKNTVYLQMNSHKPEDTAVYYCASGAPSLKYEYWGQGTQVTVSS	high polyreactivity
QVQLVESGGGLVQAGGSLRLSCAASGRIFTSNTMAWYRQAPGKERELVAAITSSGGSMYYADSVKGRFTLSRDNAKNTVYLQIISLKPEDTAVYYFAGDTIGYHYWYDYWGQGTQVTVSS	low polyreactivity
QVQLVESGGGLVQAGGSLRLSCAASGRIFTSYAMGWSRQAPGKERELVATISSADGTKYADSVKGRFTISRDNAKNTVYLQMNSLKPEDTAVYYCNAYVWSWNDYWGQGTQVTVSS	low polyreactivity
QVQLVESGGGLVQAGGSLRLSCAASGRIFTSYAMGWYRQAPGKERELVAAISRRGDSTYYADSVKGRFTISRDNAKNTVYLQMNSLKPEDTAVYYCNARSSRIWDYYGFDYWGQGTQVTVSS	high polyreactivity
QVQLVESGGGLVQAGGSLRLSCAASGRIFTSYAMGWYRQAPGKERELVAAITASGGRTYYADSVKGRFTISRDNAKNTVYLQMNCLKPEDTAVYYCAKLLSFQGDYWGQGTQVTVSS	high polyreactivity
QVQLVESGGGLVQAGGSLRLSCAASGRIFTSYTMGWYRQAPGKERELVAAIDWSGGTTYYADSVKGRFTISRDNAKNTVYLQMNSLKPEDTAVYYCAALYVKVGYYTYEYWGQGTQVTVSS	low polyreactivity
QVQLVESGGGLVQAGGSLRLSCAASGRIFTTYAMGWYRPAPGKERELVAAISQNGGSTYYADSVKGRFTISRDNAKNTVFLQMNSLKPEDTAVYYCNAGPAGYYDYDYWGQGTLVTVSS	low polyreactivity
QVQLVESGGGLVQAGGSLRLSCAASGRIFTTYAMGWYRQAPGKERELVAAISRSGGSTYYADSVKGRFTISRDNAKNTVYLQMNSLKPEDTAVYYCAAVPTSNSFLSSFYYWGQGTQVTVSS	high polyreactivity
QVQLVESGGGLVQAGGSLRLSCAASGRIFTTYAMGWYRQAPGKERELVAAISRSGGSTYYADSVKGRFTISRDNAKNTVYLQMNSLKTEDTAVYYCAAVPTSNSFRSSFYYWGQGTQVTVSS	high polyreactivity
QVQLVESGGGLVQAGGSLRLSCAASGRIFTTYAMGWYRQAPGKERELVARISSGGTTYYADSVQGRFTISRDNAKNTVYLQMNSLKPEDTAVYYCNVRAVTPTRSRPFRYDYWGQGTQVTVSS	high polyreactivity
QVQLVESGGGLVQAGGSLRLSCAASGRIFTTYAMGWYRQAPGKERELVASITTTDTRTYADSVKGRFTISRDNAKNTVYLQMNSLKPEDTAVYNCAKDRLNKGRYYRAASDYWGQGTQVTVSS	low polyreactivity
QVQLVESGGGLVQAGGSLRLSCAASGRIFTVYAMGWYRQAPGKERELVAAIDFSDGTTYYADSVKARFTISRDNAKNTVYLQMNSLKPEDTAVYYCAAEGGSALDDDYWGQGTQVTVSS	high polyreactivity
QVQLVESGGGLVQAGGSLRLSCAASGRIFTWYAMGWYRQAPGKERELVAAISWSGGRTYYADSVKGRFTISRDNAKNTVYLQMNSLKPEDTAVYYCNAVPSVRWRYDYWGQGTQVTVSS	high polyreactivity
QVQLVESGGGLVQAGGSLRLSCAASGRIFTYNAMGWSRQAPGKERELVAAISSSGGSTYYADSVKGRFTISRDIAKYTVYLHMNSLKPEDTAVYYCAADDAGFWYYFYGRYVTFDYWGQGTQVTVSS	low polyreactivity
QVQLVESGGGLVQAGGSLRLSCAASGRIFTYNAMGWYRQAPGKEWELVAVISRRGGSTYYADSVKGRFTISRDNAKNSVYLQINSLKPDDTAVYYWAADLPSYPYEFWGQGTQVTVSS	low polyreactivity
